In the RNAGym collection of RNA variant scans (doi:10.7554/elife.80360):

B1: Hairpin Ribozyme (parent)
chain: GUCCUCUUUCACGUGCGCGUGAAAGAGAGAAGUGAACCAGAGAAACACACGUUGUGGUAUAUUACCUGGUA

Variants of: B1
Experiment: self-cleavage, relative activity (ratio to wild type); higher = more cleavage; co-transcriptional

Variant	self-cleavage
GUCCUCUUUUACGUGCGCGUGAAAGAGAGAAGUGCACCAGAGAAACACACGUUGUGGUAUAUUACCUGGUA	0.871
GUCCUCUUUGACGUGCGCGUGAAAGAGAGAAGUGAACCACAGAAACACACGUUGUGGUAUAUUACCUGGUA	0.122
GUCCUCUUUGACGUGCGCGUGAAAGAGAGAAGUGAACCAGAGAAACACACGUUGUCGUAUAUUACCUGGUA	0.149
GUCCUCUUUGACGUGCGCGUGAAAGAGAGAAGUGAACCAGAGAAACACACGUUGUUGUAUAUUACCUGGUA	0.109
GUCCUCUUUUACGUGCGCGUGAAAGAGAGAAGUGAACCAGAGGAACACACGUUGUGGUAUAUUACCUGGUA	0.113
GUCCUCUUUUACGUGCGCGUGAAAGAGAGAAGUGAACCAGAGCAACACACGUUGUGGUAUAUUACCUGGUA	0.189
GUCCUCUUUGACGUGCGCGUGAAAGAGAGAAGUGAACCAGAGAAACACACGUUGUGGUACAUUACCUGGUA	0.815
GUCCUCUUUGACGUGCGCGUGAAAGAGAGAAGUGAACCAGAGAAAUACACGUUGUGGUAUAUUACCUGGUA	0.0874
GUCCUCUUUGACGUGCGCGUGAAAGAGAGAAGUGAACCAGAGAAACACGCGUUGUGGUAUAUUACCUGGUA	0.343
GUCCUCUUUGACGUGCGCGUGAAAGAGAGAAGUGUACCAGAGAAACACACGUUGUGGUAUAUUACCUGGUA	0.517
GUCCUCUUUGACGUGCGCGUGAAAGAGCGAAGUGAACCAGAGAAACACACGUUGUGGUAUAUUACCUGGUA	0.306
GUCCUCUUUUACGUGCGCGUGAAAGAGAGUAGUGAACCAGAGAAACACACGUUGUGGUAUAUUACCUGGUA	0.12
GUCCUCUUUUACGUGCGCGUGAAAGAGAGAAGUGAACCAGAGAAACGCACGUUGUGGUAUAUUACCUGGUA	0.169
GUCCUCUUUUACGUGCGCGUGAAAGAGAGAAGUGAACCAGAGAAACUCACGUUGUGGUAUAUUACCUGGUA	0.109
GUCCUCUUUUACGUGCGCGUGAAAGAGAGAAGUGAACCAGAGAAACCCACGUUGUGGUAUAUUACCUGGUA	0.257
GUCCUCUUUGACGUGCGCGUGAAAGAGAGAAGUGAAGCAGAGAAACACACGUUGUGGUAUAUUACCUGGUA	0.372
GUCCUCUUUGACGUGCGCGUGAAAGAGAGAAGUGAAUCAGAGAAACACACGUUGUGGUAUAUUACCUGGUA	0.379
GUCCUCUUUGACGUGCGCGUGAAAGAGAGAGGUGAACCAGAGAAACACACGUUGUGGUAUAUUACCUGGUA	0.576
GUCCUCUUUGACGUGCGCGUGAAAGAGAGACGUGAACCAGAGAAACACACGUUGUGGUAUAUUACCUGGUA	0.198

Variant	self-cleavage
GUCCUCUUUGACGUGCACGUGAAAGAGAGAAGUGAACCAGAGAAACACACGUUGUGGUAUAUUACCUGGUA	0.676
GUCCUCUUUGACGUGCGCGUGAAAGAGAGAAGUCAACCAGAGAAACACACGUUGUGGUAUAUUACCUGGUA	1.08
GUCCUCUUUUACGUGCGCGUGAAAGAGAGAAGUGAACCAGAGAAACACUCGUUGUGGUAUAUUACCUGGUA	0.0687
GUCCUCUUUUACGUGCGCGUGAAAGAGAGAAGUGAACCCGAGAAACACACGUUGUGGUAUAUUACCUGGUA	0.458
GUCCUCUUUGACGUGCGCGUGAAAGAGAGAAGUGAUCCAGAGAAACACACGUUGUGGUAUAUUACCUGGUA	0.336
GUCCUCUUUGACGUGCGCGUGAAAGAGAGAAGUGAACCAGAGAAACACACGUUGUGGUAUAUCACCUGGUA	0.104
GUCCUCUUUGACGUGCGCGUGAAAGAGAGAAGUGAACCAGAGAAACACACGUUGUGGUAUAUAACCUGGUA	0.158
GUCCUCUUUGACGUGCGCGUGAAAGAGAGAAGUGAACCAGAGAAACACACGUUGUGGUAUAUGACCUGGUA	0.113
GUCCUCUUUGACGUGCGCGUGAAAGAGAGAAGUGAACCAGAGAAACACACGUUGUGGUAUAGUACCUGGUA	0.138
GUCCUCUUUGACGUGCGCGUGAAAUAGAGAAGUGAACCAGAGAAACACACGUUGUGGUAUAUUACCUGGUA	0.481
GUCCUCUUUGACGUGCGCGUGAAAAAGAGAAGUGAACCAGAGAAACACACGUUGUGGUAUAUUACCUGGUA	0.211
GUCCUCUUUGACGUGCGGGUGAAAGAGAGAAGUGAACCAGAGAAACACACGUUGUGGUAUAUUACCUGGUA	0.621
GUCCUCUUUGACGUGCGAGUGAAAGAGAGAAGUGAACCAGAGAAACACACGUUGUGGUAUAUUACCUGGUA	0.907
GUCCUCUUUGAAGUGCGCGUGAAAGAGAGAAGUGAACCAGAGAAACACACGUUGUGGUAUAUUACCUGGUA	0.491
GUCCUCUUUGACGUUCGCGUGAAAGAGAGAAGUGAACCAGAGAAACACACGUUGUGGUAUAUUACCUGGUA	0.851
GUCCUCUUUGACGUACGCGUGAAAGAGAGAAGUGAACCAGAGAAACACACGUUGUGGUAUAUUACCUGGUA	0.624
GUCCUCUUUGACGUGCGCGUGAAAGAGAGAAGUGAACCGGAGAAACACACGUUGUGGUAUAUUACCUGGUA	0.267
GUCCUCUUUGACGUGCGCGUGAAAGAGAGAAGUGAACCCGAGAAACACACGUUGUGGUAUAUUACCUGGUA	0.357
GUCCUCUUUUACGUGCGCGUGAAAGAGAGAAGUGAACCAGGGAAACACACGUUGUGGUAUAUUACCUGGUA	0.765
